Results as given in the supplement of paper PMC10126150.
± gives the standard deviation of the averaged measurements.

tested on: ATP; test: switch fluorescence ratio, 500 uM ATP over buffer (Cy3 cluster intensity, sum of 5 cycles each) (fold (ratio)); higher = stronger signal-on switching upon ATP binding; sequences stand for … in TCGTCGGCAGCGTCAGATGTGTATAAGAGACAGTTTTTTTTTTTTTTTTTTTTTTTTT…TC; details: aptamer strand: ATP DNA aptamer (quencher-CACCTGGGGGAGTATTGCGGAGGAAGG + anchor), 100 nM annealed; ATP concentration: 500 uM
Procedure, shortened: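 Cy3-labelled switching-strand clusters on a modified Illumina MiSeq flow-cell were annealed to 100 nM quencher-labelled ATP aptamer and imaged first in selection buffer, then after 15 min with 500 uM ATP at 22 °C. NaOH stripping and re-annealing separated each of five buffer/ATP cycles, and clusters outside 100-1000 RFU were excluded. The fluorescence ratio sums target-cycle Cy3 intensity over buffer-cycle Cy3 intensity per cluster and averages it per switch-domain sequence.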
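Further: ATP exposure 15 min at 22 °C before imaging.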

Sequence | switch fluorescence ratio
AAAAAAAGCA | 1.04 ± 0.05
AAAAAAAGGT | 1.021 ± 0.01
AAAAAAATCC | 1.01 ± 0.07
AAAAAAATTC | 1.05 ± 0.079
AAAAAACCTA | 1.063 ± 0.008
AAAAAACGCT | 1.08 ± 0.061
AAAAAAGTGG | 1.02 ± 0.026
AAAAAATAGG | 1.01 ± 0.028
AAAAAATAGT | 1 ± 0.019
AAAAAATGCT | 1.01 ± 0.014
AAAAAATTCG | 1.03 ± 0.017
AAAAACAGGT | 1.02 ± 0.013
AAAAAGCTGA | 0.973 ± 0.055
AAAAAGGATT | 1 ± 0.02
AAAAAGGTGG | 1.06 ± 0.047
AAAAAGGTTT | 0.978 ± 0.037
AAAAAGTTAG | 0.998 ± 0.023
AAAAATAAGC | 1.03 ± 0.072
AAAAATATGC | 0.996 ± 0.017
AAAAATCTGG | 1.45 ± 0.67
AAAAATGCGG | 1.01 ± 0.077
AAAAATGGTG | 0.981 ± 0.033
AAAAATGTGT | 0.971 ± 0.01
AAAAATTAAT | 0.979 ± 0.023
AAAAATTTCG | 1.05 ± 0.063

Sequence | switch fluorescence ratio
AAAAATTTGT | 0.993 ± 0.05
AAAAATTTTT | 0.995 ± 0.052
AAAACAAACT | 1.26 ± 0.38
AAAACAGGAT | 0.9954 ± 0.0095
AAAACATAGC | 0.965 ± 0.056
AAAACCGCGA | 1.59 ± 0.28
AAAACGAGAT | 1.05 ± 0.039
AAAACGAGTC | 1.07 ± 0.031
AAAACGCGCT | 0.965 ± 0.079
AAAACGGAAC | 1.05 ± 0.028
AAAACTTTGA | 1 ± 0.017
AAAAGACGGT | 1.015 ± 0.0016
AAAAGATATT | 0.996 ± 0.049
AAAAGATTGG | 0.969 ± 0.011
AAAAGCAGCG | 1.03 ± 0.05
AAAAGCAGTT | 1.028 ± 0.004
AAAAGCGCT | 0.999 ± 0.025
AAAAGCGTAG | 1.01 ± 0.015
AAAAGCGTTA | 0.9962 ± 0.009
AAAAGCTACT | 1.06 ± 0.053
AAAAGCTCGT | 1 ± 0.05
AAAAGCTTAT | 1.05 ± 0.03
AAAAGCTTTT | 0.988 ± 0.034
AAAAGGAAT | 1.001 ± 0.009
AAAAGGACGT | 0.962 ± 0.0056

Sequence | switch fluorescence ratio
AAAAGGGGAA | 1.02 ± 0.025
AAAAGGGGAG | 1.14 ± 0.16
AAAAGGGGAT | 0.997 ± 0.036
AAAAGGGGTG | 1.09 ± 0.025
AAAAGGTGCC | 1.13 ± 0.024
AAAAGGTTAC | 1.06 ± 0.033
AAAAGGTTAG | 1.0185 ± 0.00083
AAAAGGTTGT | 0.999 ± 0.038
AAAAGTGAAA | 1.14 ± 0.2
AAAAGTTATT | 0.986 ± 0.027
AAAAGTTCTG | 1.01 ± 0.057
AAAAGTTTTC | 0.975 ± 0.0098
AAAATAAGGT | 0.969 ± 0.043
AAAATACGGG | 1.21 ± 0.21
AAAATACGTT | 1.23 ± 0.16
AAAATAGAGC | 1.05 ± 0.062
AAAATAGGGA | 0.989 ± 0.024
AAAATATACA | 1.01 ± 0.027
AAAATATGGG | 0.987 ± 0.031
AAAATCACGG | 1.14 ± 0.1
AAAATCGAAA | 0.99 ± 0.015
AAAATCTAAT | 1.01 ± 0.054
AAAATCTTAG | 1 ± 0.036
AAAATGAACG | 1.08 ± 0.047
AAAATGACGT | 1.04 ± 0.049

Sequence | switch fluorescence ratio
AAAATGCATC | 1.04 ± 0.038
AAAATGCGGG | 1.01 ± 0.036
AAAATGGAGA | 0.983 ± 0.029
AAAATGGGCA | 1.02 ± 0.024
AAAATGGGTA | 0.986 ± 0.034
AAAATGGTGC | 1.06 ± 0.065
AAAATGTAAG | 1.011 ± 0.0057
AAAATGTAGG | 0.957 ± 0.03
AAAATGTGGG | 0.987 ± 0.041
AAAATTAGTT | 1.03 ± 0.012
AAAATTGTGT | 1.01 ± 0.015
AAAATTGTTT | 1.01 ± 0.031
AAAATTTTTT | 1.07 ± 0.19
AAACACTGGG | 0.9638 ± 0.0073
AAACAGCTTA | 1.05 ± 0.056
AAACATAGTG | 0.987 ± 0.052
AAACCCGGGA | 1.04 ± 0.058
AAACGCCTTA | 1.03 ± 0.015
AAACGGCGTT | 0.9725 ± 0.0013
AAACGGGCTA | 1.03 ± 0.039
AAACGGGGGT | 0.991 ± 0.0073
AAACGTCTGA | 0.9936 ± 0.0016
AAACGTGGGG | 1.01 ± 0.066
AAACGTTAGA | 1.03 ± 0.0082
AAACTAACTT | 1.01 ± 0.046
